Results published in PMC12751052.

Target: AcrIII-2 (second anti-CRISPR of type III systems), viral SAVED protein of Thermocrinis Great Boiling Spring virus (Thermocrinis Great Boiling Spring virus)
Assay: crystal structure; apo AcrIII-2, X-ray, data to 1.79 Å; crystals from 1.2 M sodium dihydrogen phosphate, 0.8 M dipotassium hydrogen phosphate, 0.2 M lithium sulphate, 0.1 M CAPS pH 10, 293 K

AcrIII-2 (second anti-CRISPR of type III systems), viral SAVED protein of Thermocrinis Great Boiling Spring virus (natural protein)
stoichiometry N: 2
